Assay results taken from the supplement of paper PMC11246515.
± gives the standard deviation of the averaged measurements.

Test: total protein half-life in vivo (active degradation + dilution); higher = more stable protein
[1] = E. coli NCM3722 delta-clpP delta-lon delta-hslV, growth: N-lim chemostat, doubling time 6 h
[2] = E. coli NCM3722 delta-clpP, growth: N-lim chemostat, doubling time 6 h
[3] = E. coli NCM3722 delta-hslV, growth: N-lim chemostat, doubling time 6 h
[4] = E. coli NCM3722 delta-lon, growth: N-lim chemostat, doubling time 6 h
[5] = E. coli NCM3722 delta-smpB, growth: N-lim chemostat, doubling time 6 h
[6] = wild type E. coli NCM3722, growth: C-lim chemostat, doubling time 3 h
[7] = wild type E. coli NCM3722, growth: C-lim chemostat, doubling time 6 h
[8] = wild type E. coli NCM3722, growth: C-lim chemostat, doubling time 12 h
[9] = wild type E. coli NCM3722, growth: N-lim chemostat, doubling time 6 h
[10] = wild type E. coli NCM3722, growth: N-lim chemostat, doubling time 12 h
[11] = wild type E. coli NCM3722, growth: P-lim chemostat, doubling time 6 h
[12] = wild type E. coli NCM3722, growth: P-lim chemostat, doubling time 12 h

## MTVSSHRLELLSPARDAAIAREAILHGADAVYIGGPGFGARHNASNSLKDIAELVPFAHRYGAKIFVTLNTILHDDELEPAQRLITDLYQTGVDALIVQDMGILELDIPPIELHASTQCDIRTVEKAKFLSDVGFTQIVLARELNLDQIRAIHQATDATIEFFIHGALCVAYSGQCYISHAQTGRSANRGDCSQACRLPYTLKDDQGRVVSYEKHLLSMKDNDQTANLGALIDAGVRSFKIEGRYKDMSYVKNITAHYRQMLDAIIEERGDLARASSGRTEHFFVPSTEKTFHRGSTDYFVNARKGDIGAFDSPKFIGLPVGEVVKVAKDHLDVAVTEPLANGDGLNVLIKREVVGFRANTVEKTGENQYRVWPNEMPADLHKIRPHHPLNRNLDHNWQQALTKTSSERRVAVDIELGGWQEQLILTLTSEEGVSITHTLDGQFDEANNAEKAMNNLKDGLAKLGQTLYYARDVQINLPGALFVPNSLLNQFRREAADMLDAARLASYQRGSRKPVADPAPVYPQTHLSFLANVYNQKAREFYHRYGVQLIDAAYEAHEEKGEVPVMITKHCLRFAFNLCPKQAKGNIKSWKATPMQLVNGDEVLTLKFDCRPCEMHVIGKIKNHILKMPLPGSVVASVSPDELLKTLPKRKG
[1]
  total protein half-life in vivo: 4.77 ± 0.49 h
[2]
  total protein half-life in vivo: 0.895 h
[3]
  total protein half-life in vivo: 1.82 ± 0.064 h
[4]
  total protein half-life in vivo: 2.74 ± 0.24 h
[5]
  total protein half-life in vivo: 1.75 ± 0.024 h
[6]
  total protein half-life in vivo: 1.911 ± 0.011 h
[7]
  total protein half-life in vivo: 2.78 ± 0.12 h
[8]
  total protein half-life in vivo: 3.03 ± 0.49 h
[9]
  total protein half-life in vivo: 2.12 ± 0.058 h
[10]
  total protein half-life in vivo: 2.47 ± 0.12 h
[11]
  total protein half-life in vivo: 2.13 ± 0.32 h
[12]
  total protein half-life in vivo: 3.17 ± 0.38 h

## MKRASLLTLTLIGAFSAIQAAWAVDYPLPPTGSRLVGQNQTYTVQEGDKNLQAIARRFDTAAMLILEANNTIAPVPKPGTTITIPSQLLLPDAPRQGIIVNLAELRLYYYPPGENIVQVYPIGIGLQGLETPVMETRVGQKIPNPTWTPTAGIRQRSLERGIKLPPVVPAGPNNPLGRYALRLAHGNGEYLIHGTSAPDSVGLRVSSGCIRMNAPDIKALFSSVRTGTPVKVINEPVKYSVEPNGMRYVEVHRPLSAEEQQNVQTMPYTLPAGFTQFKDNKAVDQKLVDKALYRRAGYPVSVSSGATPAASNAPSVESAQNGEPEQGNMLRVTQ
[1]
  total protein half-life in vivo: 5.45 ± 0.37 h
[2]
  total protein half-life in vivo: 5.31 ± 0.28 h
[3]
  total protein half-life in vivo: 5.75 ± 0.64 h
[4]
  total protein half-life in vivo: 5.59 ± 0.22 h
[5]
  total protein half-life in vivo: 5.31 ± 0.5 h
[6]
  total protein half-life in vivo: 3.12 ± 0.47 h
[7]
  total protein half-life in vivo: 6.04 ± 1.4 h
[8]
  total protein half-life in vivo: 12.4 ± 2.9 h
[9]
  total protein half-life in vivo: 5.2 ± 0.094 h
[10]
  total protein half-life in vivo: 9.08 ± 0.15 h
[11]
  total protein half-life in vivo: 5.28 ± 0.24 h
[12]
  total protein half-life in vivo: 11.2 ± 1.1 h

## MQKNAAHTYAISSLLVLSLTGCAWIPSTPLVQGATSAQPVPGPTPVANGSIFQSAQPINYGYQPLFEDRRPRNIGDTLTIVLQENVSASKSSSANASRDGKTNFGFDTVPRYLQGLFGNARADVEASGGNTFNGKGGANASNTFSGTLTVTVDQVLVNGNLHVVGEKQIAINQGTEFIRFSGVVNPRTISGSNTVPSTQVADARIEYVGNGYINEAQNMGWLQRFFLNLSPM [P0A6S0]
[1]
  total protein half-life in vivo: 4.87 ± 0.27 h
[2]
  total protein half-life in vivo: 5.09 ± 0.14 h
[6]
  total protein half-life in vivo: 2.82 ± 0.29 h
[7]
  total protein half-life in vivo: 4.64 ± 0.58 h
[8]
  total protein half-life in vivo: 7.92 ± 0.56 h
[9]
  total protein half-life in vivo: 4.97 h
[10]
  total protein half-life in vivo: 9.12 h
[11]
  total protein half-life in vivo: 5.6 h
[12]
  total protein half-life in vivo: 11.5 ± 0.65 h

## MQDLISQVEDLAGIEIDHTTSMVMIFGIIFLTAVVVHIILHWVVLRTFEKRAIASSRLWLQIITQNKLFHRLAFTLQGIIVNIQAVFWLQKGTEAADILTTCAQLWIMMYALLSVFSLLDVILNLAQKFPAASQLPLKGIFQGIKLIGAILVGILMISLLIGQSPAILISGLGAMAAVLMLVFKDPILGLVAGIQLSANDMLKLGDWLEMPKYGADGAVIDIGLTTVKVRNWDNTITTIPTWSLVSDSFKNWSGMSASGGRRIKRSISIDVTSIRFLDEDEMQRLNKAHLLKPYLTSRHQEINEWNRQQGSTESVLNLRRMTNIGTFRAYLNEYLRNHPRIRKDMTLMVRQLAPGDNGLPLEIYAFTNTVVWLEYESIQADIFDHIFAIVEEFGLRLHQSPTGNDIRSLAGAFKQ [P0AAT4]
[1]
  total protein half-life in vivo: 6.49 ± 0.43 h
[2]
  total protein half-life in vivo: 6.36 ± 0.28 h
[3]
  total protein half-life in vivo: 6.274 ± 0.01 h
[4]
  total protein half-life in vivo: 6.69 ± 1.4 h
[5]
  total protein half-life in vivo: 6.33 ± 0.022 h
[6]
  total protein half-life in vivo: 3.52 ± 0.6 h
[7]
  total protein half-life in vivo: 6.12 ± 0.22 h
[8]
  total protein half-life in vivo: 13.9 ± 0.19 h
[9]
  total protein half-life in vivo: 6.22 ± 0.46 h
[10]
  total protein half-life in vivo: 12 ± 1.6 h
[11]
  total protein half-life in vivo: 5.84 ± 0.59 h
[12]
  total protein half-life in vivo: 13.7 ± 1.2 h
